The source of these data is PMC2649420.

Common to all, as to assay: SPR
On the technique in general: In SPR one partner is held on a chip, and binding of the other changes the refractive index at the surface.

Assay [1] has as its target Sbi-III-IV (amino acids 150-266), domains III and IV of Sbi (S. aureus strain Mu50) (UniProt Q99RL2).
The target is the same in assay [2]. This is another data set of the same source.
Assay [3] has as its target Sbi-IV (amino acids 197-266), domain IV of Sbi (S. aureus strain Mu50) (UniProt Q99RL2).

Broadly, the Kd is the concentration at which binding is half-saturated.

Read-outs that look alike come from different tables or passages of the source.

Regarding “C3dg, recombinant (from UniProt P01024 955-1303) (domain or fragment)”, the Kd in assay [1] was determined as 700 nM; in assay [2], 1400 nM; in assay [3], 800 nM.
